Experimental data reported in patent publication US20240115527A1, “CXCR1/CXCR2 INHIBITORS FOR USE IN TREATING MYELOFIBROSIS” (Icahn School of Medicine at Mount Sinai, priority 2020, published 2024).

Columns and labels:
[1] = test system: MF CD34+ cells co-cultured with splenic EC; test: Proliferation of MF CD34+ cells co-cultured with LCN2 treated splenic endothelial cells; format: cell-based, human; settings: LCN2 treated endothelial cells, FIG. 4B
Text: FIGS. 4A and 4B illustrate that addition of a CXCR1/CXCR2 inhibitor reverses effects of IL-8 on MF CD34^+ cells proliferation and lineage differentiation. FIG. 4A illustrates that IL-8 decreased the fraction of normal CD34^+, CD41^+, and CD33^+ cells, but increased the fraction of MF CD34^+, CD41^+, and CD33^+ cells. The effects of IL-8 were eliminated by the addition of the CXCR1/CXCR2 inhibitor ladarixin (Ladx). Normal CD34/CD41/CD33: left bars. MF CD34/CD41/CD33: Right bars. FIG. 4B illustrates that splenic endothelial cells (ECs) promote the proliferation of hematopoietic CD34^+ cells. Shown is fold change in CD34^+ cells cultured alone in the absence of cytokines and that the numbers are increased when the CD34^+ cells were co-cultured with LCN2 treated endothelial cells. The effects of co-cultivation with ECs were eliminated by addition of the CXCR1/CXCR2 antagonist reparixin (RPX).
Similarly, while treatment with LCN2 enhances endothelial cell (EC)-mediated proliferation of MF cells, treatment with the CXCR1/CXCR2 inhibitor reparixin decreased MF CD34^+ proliferation when co-cultured with splenic EC (FIG. 4B).

[2] = test system: normal splenic stromal cells; test: IL-8 and CXCL1 mRNA and protein levels in normal splenic stromal cells treated with LCN2; format: cell-based, human; settings: treatment with LCN2, FIGS. 3A and 3B
Text: FIGS. 3A, 3B, and 3C illustrate that reduction of IL-8 blocks VEGF, which is involved in the development of splenic endothelial cells (EC)/MF HSC niches. FIGS. 3A and 3B illustrate that LCN2 increases IL-8 and CXCL1 protein and mRNA levels in spleen stromal cells. Con: left bars. LCN2: right bars. FIG. 3C illustrates that IL-8 regulates VEGF expression. si=silencing. Ab=antibody. Con=control.
Lipocalin2 (LCN2) is a cytokine produced by MF marrow myeloid cells. Levels of LCN2 are 2-3 fold greater in the circulation of MF patients as compared to PV and ET patients and even higher as compared to healthy controls. […] IL-8 and the related chemokine CXCL1 are pro-angiogenic creating a cascade of cytokines (VEGF) contributing to the development of splenic EC/MF HSC niches. […] The positive impact of IL-8 on VEGF expression was blocked by an IL-8 neutralizing antibody.

B1: LCN2: Lipocalin2 (LCN2) is a cytokine produced by MF marrow myeloid cells (protein, UniProt P80188 21-198, looked up)
Neutrophil …: QDSTSDLIPAPPLSKVPLQQNFQDNQFQGKWYVVGLAGNAILREDKDPQKMYATIYELKEDKSYNVTSVLFRKKKCDYWIRTFVPGCQPGEFTLGNIKSYPGLTSYLVRVVSTNYNQHAMVFFKKVSQNREYFKITLYGRTKELTSELKENFIRFSKSLGLPENHIVFPVPIDQCIDG
endothelial cell (EC)-mediated proliferation of MF cells [1]: enhances | CXCL1 mRNA and protein levels [2]: significant increase | IL-8 mRNA and protein levels [2]: significant increase
